Data reported in the supplement of paper PMC10724198.
± gives the standard deviation of the averaged measurements.

Legend:
Saccharomyces cerevisiae [1] = assay: protein stability index of tFT-peptide fusion (C-terminal peptide) (PSI (0-1 scale)); higher = more stable (slower turnover); conditions: genetic background: wild type; temperature: 30 C
Saccharomyces cerevisiae [2] = assay: as above
Method: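 MPS profiling in S. cerevisiae of the tFT-X12 degron library: putative degron peptides plus stable controls, 12 aa, fused to the C-terminus of a sfGFP-mCherry timer. Cells are FACS-sorted into 8 mCherry/sfGFP bins and deep-sequenced. PSI runs from 0 (unstable) to 1 (stable). Backgrounds are wild type, das1Δ and doa10Δ at 30 °C, and wild type, das1Δ, cdc34-1 and cdc53-1 at 37 °C; 2-3 technical replicates each.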

[3] = genetic background: cdc34-1, temperature: 37 C
[4] = genetic background: cdc53-1, temperature: 37 C
[5] = genetic background: das1 deletion, temperature: 30 C
[6] = genetic background: das1 deletion, temperature: 37 C
[7] = genetic background: doa10 deletion, temperature: 30 C
[8] = genetic background: wild type, temperature: 30 C
[9] = genetic background: wild type, temperature: 37 C
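Also: PSI is a weighted mean of sequencing reads over stability bins, variants kept only with over 10 reads, mCherry proximal and sfGFP distal, peptide attached via GGGS linker.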

Row | Sequence | protein stability index (Saccharomyces cerevisiae [1]) | protein stability index (Saccharomyces cerevisiae [2]; [3]) | protein stability index (Saccharomyces cerevisiae [2]; [4]) | protein stability index (Saccharomyces cerevisiae [2]; [5]) | protein stability index (Saccharomyces cerevisiae [2]; [6]) | protein stability index (Saccharomyces cerevisiae [2]; [7]) | protein stability index (Saccharomyces cerevisiae [2]; [8]) | protein stability index (Saccharomyces cerevisiae [2]; [9])
1 | FLFLSPLALHVS | 0.304 ± 0.01 | 0.444 ± 0.03 | 0.494 ± 0.014 | 0.412 ± 0.022 | 0.513 ± 0.014 | 0.177 ± 0.0097 | 0.212 ± 0.024 | 0.256 ± 0.011
2 | FLIVLLVIFFGF | 0.324 ± 0.006 | 0.275 ± 0.0072 | 0.387 ± 0.019 | 0.276 ± 0.023 | 0.367 ± 0.023 | 0.275 ± 0.018 | 0.269 ± 0.04 | 0.357 ± 0.018
3 | FLLASSRRICCS | 0.391 ± 0.0082 | 0.458 ± 0.0088 | 0.486 ± 0.029 | 0.365 ± 0.025 | 0.5347 ± 0.001 | 0.249 ± 0.015 | 0.269 ± 0.028 | 0.47 ± 0.013
4 | FLLCGVFFFFFV | 0.4286 ± 0.0014 | 0.323 ± 0.0043 | 0.405 ± 0.046 | 0.288 ± 0.025 | 0.3092 ± 0.00041 | 0.344 ± 0.012 | 0.245 ± 0.032 | 0.319 ± 0.013
5 | FLLGWFLFFVCS | 0.406 ± 0.043 | 0.401 ± 0.015 | 0.422 ± 0.019 | 0.32 ± 0.027 | 0.4361 ± 0.0024 | 0.289 ± 0.012 | 0.283 ± 0.027 | 0.393 ± 0.013
6 | FLLYSILLAFLL | 0.436 ± 0.011 | 0.524 ± 0.034 | 0.503 ± 0.02 | 0.415 ± 0.033 | 0.546 ± 0.0071 | 0.37 ± 0.012 | 0.345 ± 0.033 | 0.492 ± 0.037
7 | FLMLFVVLWLFL | 0.366 ± 0.076 | 0.427 ± 0.026 | 0.46 ± 0.0076 | 0.394 ± 0.028 | 0.522 ± 0.071 | 0.389 ± 0.014 | 0.369 ± 0.04 | 0.448 ± 0.0072
8 | FLPFRVFNFSLV | 0.38 ± 0.063 | 0.659 ± 0.031 | 0.713 ± 0.015 | 0.653 ± 0.035 | 0.725 ± 0.015 | 0.22 ± 0.011 | 0.229 ± 0.026 | 0.441 ± 0.05
9 | FLSFARSSCLWF | 0.748 ± 0.016 | 0.678 ± 0.028 | 0.7423 ± 0.0011 | 0.657 ± 0.015 | 0.739 ± 0.014 | 0.676 ± 0.03 | 0.666 ± 0.0085 | 0.7115 ± 0.00098
10 | FMSAGVSWIFFV | 0.343 ± 0.047 | 0.579 ± 0.021 | 0.7146 ± 0.0024 | 0.601 ± 0.021 | 0.7503 ± 0.0043 | 0.105 ± 0.013 | 0.13 ± 0.012 | 0.129 ± 0.011
11 | FNLWCRQLASIE | 0.327 ± 0.094 | 0.181 ± 0.034 | 0.218 ± 0.0042 | 0.276 ± 0.0061 | 0.187 ± 0.0035 | 0.29904 ± 0.00019 | 0.284 ± 0.012 | 0.178 ± 0.0067
12 | FPLFCRIHLLCS | 0.107 ± 0.0096 | 0.138 ± 0.0083 | 0.157 ± 0.0044 | 0.2 ± 0.017 | 0.275 ± 0.0037 | 0.059 ± 0.02 | 0.0768 ± 0.011 | 0.0529 ± 0.0047
13 | FPPHFLPLVFLS | 0.103 ± 0.0049 | 0.436 ± 0.035 | 0.5867 ± 0.0031 | 0.56 ± 0.026 | 0.67 ± 0.0083 | 0.0786 ± 0.017 | 0.0804 ± 0.02 | 0.0988 ± 0.0048
14 | FPRPLPVPLAVS | 0.25711 ± 0.00013 | 0.153 ± 0.023 | 0.217 ± 0.06 | 0.193 ± 0.033 | 0.2901 ± 0.0012 | 0.15456 ± 3.3e-05 | 0.181 ± 0.0047 | 0.221 ± 0.005
15 | FPWGRIFLRLRT | 0.487 ± 0.049 | 0.34 ± 0.083 | 0.347 ± 0.025 | 0.47 ± 0.042 | 0.565 ± 0.01 | 0.5445 ± 0.0029 | 0.441 ± 0.015 | 0.5125 ± 0.0051
16 | FQFTLWRTLLCS | 0.189 ± 0.0077 | 0.1843 ± 0.00066 | 0.248 ± 0.03 | 0.218 ± 0.026 | 0.3394 ± 0.0027 | 0.113 ± 0.015 | 0.137 ± 0.021 | 0.174 ± 0.0054
17 | FQLGLVFCVCSG | 0.367 ± 0.022 | 0.432 ± 0.0073 | 0.438 ± 0.022 | 0.258 ± 0.041 | 0.469 ± 0.0075 | 0.244 ± 0.0076 | 0.258 ± 0.026 | 0.453 ± 0.016
18 | FQWILYIAKRVV | 0.338 ± 0.021 | 0.556 ± 0.095 | 0.671 ± 0.04 | 0.473 ± 0.036 | 0.603 ± 0.0069 | 0.259 ± 0.059 | 0.261 ± 0.044 | 0.442 ± 0.051
19 | FRCPHAVKLVLV | 0.311 ± 0.02 | 0.384 ± 0.021 | 0.404 ± 0.016 | 0.328 ± 0.037 | 0.471 ± 0.011 | 0.1947 ± 0.0014 | 0.214 ± 0.018 | 0.33212 ± 0.00028
20 | FRFSSLLYILLS | 0.0959 ± 0.022 | 0.223 ± 0.067 | 0.274 ± 0.018 | 0.316 ± 0.017 | 0.402 ± 0.016 | 0.0923 ± 0.012 | 0.0651 ± 0.018 | 0.0868 ± 0.021

Row | Sequence | protein stability index (Saccharomyces cerevisiae [1]) | protein stability index (Saccharomyces cerevisiae [2]; [3]) | protein stability index (Saccharomyces cerevisiae [2]; [4]) | protein stability index (Saccharomyces cerevisiae [2]; [5]) | protein stability index (Saccharomyces cerevisiae [2]; [6]) | protein stability index (Saccharomyces cerevisiae [2]; [7]) | protein stability index (Saccharomyces cerevisiae [2]; [8]) | protein stability index (Saccharomyces cerevisiae [2]; [9])
21 | FRTTGQAPPSKP | 0.568 ± 0.2 | 0.674 ± 0.064 | 0.743 ± 0.013 | 0.633 ± 0.013 | 0.727 ± 0.022 | 0.64 ± 0.038 | 0.6444 ± 0.0056 | 0.71966 ± 0.0003
22 | FSLRLFLVLALS | 0.193 ± 0.0034 | 0.3032 ± 0.0029 | 0.377 ± 0.01 | 0.261 ± 0.021 | 0.395 ± 0.012 | 0.123 ± 0.013 | 0.154 ± 0.028 | 0.227 ± 0.0026
23 | FSVTTLTILCLR | 0.3497 ± 0.0014 | 0.305 ± 0.017 | 0.329 ± 0.011 | 0.273 ± 0.029 | 0.394 ± 0.017 | 0.49 ± 0.061 | 0.277 ± 0.02 | 0.382 ± 0.0086
24 | FSYLSFLPSLAA | 0.527 ± 0.048 | 0.545 ± 0.049 | 0.562 ± 0.034 | 0.466 ± 0.031 | 0.599 ± 0.017 | 0.442 ± 0.0053 | 0.468 ± 0.0066 | 0.5654 ± 0.0021
25 | FTFPLPPSLLLV | 0.347 ± 0.017 | 0.378 ± 0.023 | 0.389 ± 0.0036 | 0.322 ± 0.021 | 0.456 ± 0.011 | 0.2603 ± 0.00082 | 0.233 ± 0.028 | 0.37 ± 0.0071
26 | FTGLCQGLWLGW | 0.738 ± 0.025 | 0.691 ± 0.019 | 0.743 ± 0.014 | 0.658 ± 0.059 | 0.775 ± 0.02 | 0.684 ± 0.039 | 0.649 ± 0.013 | 0.7501 ± 0.0044
27 | FVCLCGFLQVLS | 0.489 ± 0.0078 | 0.517 ± 0.018 | 0.564 ± 0.038 | 0.395 ± 0.036 | 0.632 ± 0.04 | 0.3687 ± 0.0013 | 0.411 ± 0.028 | 0.526 ± 0.028
28 | FVLWWGWSWLVV | 0.235 ± 0.019 | 0.213 ± 0.01 | 0.30626 ± 6.5e-05 | 0.173 ± 0.027 | 0.318 ± 0.0055 | 0.152 ± 0.0023 | 0.16 ± 0.016 | 0.2824 ± 0.00063
29 | FVRVFLRLGVVS | 0.299 ± 0.027 | 0.14 ± 0.024 | 0.17 ± 0.039 | 0.194 ± 0.035 | 0.302 ± 0.019 | 0.175 ± 0.0045 | 0.177 ± 0.022 | 0.256 ± 0.0033
30 | FVSVWVFLVSSF | 0.312 ± 0.024 | 0.258 ± 0.025 | 0.381 ± 0.019 | 0.248 ± 0.032 | 0.457 ± 0.014 | 0.194 ± 0.017 | 0.225 ± 0.035 | 0.401 ± 0.039
31 | FVVQSLNQMRLN | 0.441 ± 0.034 | 0.693 ± 0.025 | 0.727 ± 0.02 | 0.656 ± 0.035 | 0.718 ± 0.019 | 0.354 ± 0.0096 | 0.379 ± 0.025 | 0.62 ± 0.025
32 | FVYFLLVVCFAF | 0.208 ± 0.011 | 0.1671 ± 0.0012 | 0.242 ± 0.014 | 0.184 ± 0.028 | 0.274 ± 0.0017 | 0.157 ± 0.0085 | 0.166 ± 0.021 | 0.249 ± 0.017
33 | FWESHVLPYRLL | 0.239 ± 0.045 | 0.654 ± 0.036 | 0.78233 ± 0.00013 | 0.644 ± 0.014 | 0.7799 ± 0.0022 | 0.19 ± 0.008 | 0.223 ± 0.018 | 0.465 ± 0.028
34 | FWFLWAKMLLSC | 0.175 ± 0.022 | 0.253 ± 0.015 | 0.212 ± 0.064 | 0.252 ± 0.032 | 0.377 ± 0.0081 | 0.0958 ± 0.02 | 0.109 ± 0.027 | 0.138 ± 0.023
35 | FWWVGCGWCRWG | 0.378 ± 0.011 | 0.619 ± 0.019 | 0.73 ± 0.023 | 0.602 ± 0.036 | 0.708 ± 0.011 | 0.2446 ± 0.0022 | 0.269 ± 0.025 | 0.4351 ± 0.00096
36 | FYPFHVFCLLIF | 0.243 ± 0.029 | 0.18 ± 0.028 | 0.177 ± 0.037 | 0.254 ± 0.017 | 0.361 ± 0.012 | 0.18 ± 0.023 | 0.162 ± 0.028 | 0.228 ± 0.0053
37 | GAICCFCCYLVF | 0.514 ± 0.043 | 0.554 ± 0.0089 | 0.625 ± 0.026 | 0.505 ± 0.028 | 0.626 ± 0.035 | 0.463 ± 0.025 | 0.47 ± 0.014 | 0.597 ± 0.031
38 | GALWPGALRFLN | 0.171 ± 0.026 | 0.587 ± 0.045 | 0.747 ± 0.05 | 0.671 ± 0.023 | 0.81 ± 0.022 | 0.101 ± 0.014 | 0.104 ± 0.015 | 0.195 ± 0.035
39 | GCLGYTLSCFTY | 0.401 ± 0.015 | 0.563 ± 0.014 | 0.64 ± 0.038 | 0.525 ± 0.051 | 0.626 ± 0.0015 | 0.519 ± 0.019 | 0.51 ± 0.027 | 0.643 ± 0.015
